Source: patent publication US20230357716A1

Target: CD38 (UniProt P28907)
Assay: cell-based or functional assay

- reduction in detectable CD38+ pbNK cell counts against the control condition: 21 fold
Substance: daratumumab (antibody)
